Measured values: patent US11136407
pKd: −log10 of the molar value.

Assays:
[1] = target: CD9-3×FLAG-rabbitFc-Sortase-biotin (human; rabbit); assay: SPR (IBIS MX96) on CD9 chip
[2] = target: CD9-3×FLAG-rabbitFc-Sortase-biotin (human; rabbit); assay: SPR, 1:1 model; unit from the legend paragraph 216
[3] = target: CD9-3×FLAG-rabbitFc-Sortase-biotin (human; rabbit); assay: SPR, 1:1 model
[4] = target: CD9-3×FLAG-rabbitFc-Sortase-biotin (human; rabbit); assay: ELISA, biotinylated CD9-EC2-Fc on streptavidin plate, goat anti-mouse HRP
[5] = target: CD9-3×FLAG-rabbitFc-Sortase-biotin (human; rabbit); assay: SPR (IBIS MX96), antibody injected over CD9-3×FLAG-rabbitFc-Sortase-biotin chip, 1:1 model
[6] = target: CD9-3×FLAG-rabbitFc-Sortase-biotin (human; rabbit); assay: SPR; rests on the kd set to 0.1*10^-5; unit from the legend paragraph 216
[7] = target: CD9-3×FLAG-rabbitFc-Sortase-biotin (human; rabbit); assay: SPR; * legend: dissociation too low for accurate fitting, a value of 0.1*10^-5 is used

Substance | fold dissociation against HI9a [1] | pKd [2] | koff [3] | kon [3] | EC50 [4] | pKd [5] | fold affinity against AT14-012 [1] | pKd [6] | koff [7]
mouse anti-CD9 antibody clone ALB6 | 22 fold | 9.84 | 2.16e-05 s⁻¹ | 151000 M⁻¹ s⁻¹ | 0.013 µg/mL | 9.84 | – | – | –
mouse anti-CD9 antibody clone HI9a | – | – | – | 430000 M⁻¹ s⁻¹ | 0.02 µg/mL | 11.63 | 19000 fold | 11.63 | < 1e-06 s⁻¹
